# Experimental data as given in patent US20050250935A1 (priority 2004, published 2005).
substance,measurement,setting,value
human follicle—stimulating hormone [FSH],"estimated FSH activity, in vivo biological assay in rat",,6578 IU per mg protein
same,"FSH activity in the lower sample after centrifugation, in vivo test",rat,undetectable
same,"FSH activity in the upper sample after centrifugation, in vivo test",rat,97%
